Series [1] concerns the target T1, DNA2 D277A (human, UniProt P51530 1-1060, D277A).
T1 sequence: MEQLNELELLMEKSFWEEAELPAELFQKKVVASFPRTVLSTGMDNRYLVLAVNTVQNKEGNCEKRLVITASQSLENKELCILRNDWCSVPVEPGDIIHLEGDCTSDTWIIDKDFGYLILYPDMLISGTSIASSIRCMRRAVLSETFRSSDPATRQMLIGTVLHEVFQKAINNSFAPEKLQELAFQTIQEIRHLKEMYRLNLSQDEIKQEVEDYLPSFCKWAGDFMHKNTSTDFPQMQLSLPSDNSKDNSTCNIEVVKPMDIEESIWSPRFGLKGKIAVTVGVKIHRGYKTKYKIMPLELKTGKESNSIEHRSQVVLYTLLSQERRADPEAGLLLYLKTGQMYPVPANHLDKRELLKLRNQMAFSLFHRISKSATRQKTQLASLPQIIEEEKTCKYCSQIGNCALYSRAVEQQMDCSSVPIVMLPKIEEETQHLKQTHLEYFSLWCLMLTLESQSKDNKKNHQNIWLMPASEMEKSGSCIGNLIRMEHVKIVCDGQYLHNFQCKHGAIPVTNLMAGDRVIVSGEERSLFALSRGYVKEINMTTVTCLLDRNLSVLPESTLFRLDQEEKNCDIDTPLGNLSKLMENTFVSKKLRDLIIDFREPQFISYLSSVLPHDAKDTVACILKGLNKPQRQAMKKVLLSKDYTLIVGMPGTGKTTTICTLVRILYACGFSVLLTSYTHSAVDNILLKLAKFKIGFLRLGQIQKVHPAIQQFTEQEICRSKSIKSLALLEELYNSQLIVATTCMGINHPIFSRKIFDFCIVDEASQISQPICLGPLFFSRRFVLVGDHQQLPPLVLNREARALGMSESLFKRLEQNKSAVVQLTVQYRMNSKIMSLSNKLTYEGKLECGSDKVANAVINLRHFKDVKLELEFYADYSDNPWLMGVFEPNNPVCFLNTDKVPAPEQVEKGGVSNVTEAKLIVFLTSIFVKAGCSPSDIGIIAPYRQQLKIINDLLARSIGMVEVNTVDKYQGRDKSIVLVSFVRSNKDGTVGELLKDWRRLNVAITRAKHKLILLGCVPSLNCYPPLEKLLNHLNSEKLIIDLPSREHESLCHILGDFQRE
Description: EMSA; similar affinity as WT; EMSA: 25 mM Tris-HCl pH 8.0, 0.1 mg/ml BSA, 5 mM EDTA, with or without 1 mM DTT, 30 min on ice; 4-5 nM FAM-DNA or 1 nM 32P-DNA. As to conditions: protein: recombinant; tags: FLAG; 5' flap 32 nt on strand 1; 1:2 and 2:3 paired. (In general: A gel shift assay detects complexes by their altered migration in electrophoresis.)

Series [2] concerns the target T1, DNA2 D277A. Description: EMSA; EMSA: 25 mM Tris-HCl pH 8.0, 0.1 mg/ml BSA, 5 mM EDTA, with or without 1 mM DTT, 30 min on ice; 4-5 nM FAM-DNA or 1 nM 32P-DNA. Particulars: protein: recombinant; tags: FLAG; label: 3' 32P cordycepin on X04; fork 1:2, 5' arm 32 nt, 3' arm 30 nt.

B1: 5' flap (FAM) (mixed)
DNA 1: ATCGATAGTCGGATCCTCTAGACAGCTCCATGTAGCAAGGCACTGGTAGAATTCGGCAGCGT
DNA 2: GACGCTGCCGAATTCTACCAGTGCCTTGCTAGGACATCTTTGCCCACCTGCAGGTTCACCC
DNA 3: TGGGTGAACCTGCAGGTGGGCAAAGATGTCC
In the case of B1, the binding result in the series with DNA2 D277A [1] was “binds”.

B2: Y-structure (32P) (mixed)
DNA 1: ATCGATAGTCGGATCCTCTAGACAGCTCCATGTAGCAAGGCACTGGTAGAATTCGGCAGCGT
DNA 2: GACGCTGCCGAATTCTACCAGTGCCTTGCTAGGACATCTTTGCCCACCTGCAGGTTCACCC
With B2, in the series with DNA2 D277A [2], the binding result is “binds”.

For the origin of these results see PMC7311471, “The iron–sulphur cluster in human DNA2 is required for all biochemical activities of DNA2”.
